US20230365662A1
“And” between values parts separate entries of the source, which are not always exact repeats. Identical values can stand only once.

Molecular target: HRgpA-6H (Porphyromonas gingivalis) (UniProt P28784)
Assay: ELISA, Fab FASEBA supernatant on coated HRgpA-6H

Sequence of UniProt P28784 (P28784 228-991 limits assumed): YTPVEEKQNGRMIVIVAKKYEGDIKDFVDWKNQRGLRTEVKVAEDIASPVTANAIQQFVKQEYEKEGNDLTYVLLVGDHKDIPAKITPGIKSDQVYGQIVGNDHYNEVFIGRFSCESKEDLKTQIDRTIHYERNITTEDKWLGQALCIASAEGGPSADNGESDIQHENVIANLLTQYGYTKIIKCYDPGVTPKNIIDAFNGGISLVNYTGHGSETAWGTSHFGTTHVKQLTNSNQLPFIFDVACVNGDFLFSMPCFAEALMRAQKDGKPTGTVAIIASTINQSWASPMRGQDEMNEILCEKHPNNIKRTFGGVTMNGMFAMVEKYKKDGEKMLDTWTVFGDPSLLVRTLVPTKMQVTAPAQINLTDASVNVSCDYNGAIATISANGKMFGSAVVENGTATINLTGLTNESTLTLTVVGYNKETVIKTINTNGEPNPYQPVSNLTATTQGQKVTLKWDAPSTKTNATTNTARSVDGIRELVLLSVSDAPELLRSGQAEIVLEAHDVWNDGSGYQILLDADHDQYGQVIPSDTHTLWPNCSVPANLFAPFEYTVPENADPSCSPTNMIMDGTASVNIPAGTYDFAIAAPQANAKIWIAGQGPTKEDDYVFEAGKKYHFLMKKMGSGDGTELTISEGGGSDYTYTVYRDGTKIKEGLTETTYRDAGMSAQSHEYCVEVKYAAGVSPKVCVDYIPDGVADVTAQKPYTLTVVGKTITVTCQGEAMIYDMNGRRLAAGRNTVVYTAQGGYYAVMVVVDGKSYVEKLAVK

B1: parental mouse (KB001) Fab FASEBA, VL variant S95T (Fab, V domains shown)
VH: EVQLKQSGPGLVAPSQSLSITCTVSGFSLSIYSVHWVRQPPGKGLEWLGMIWGGGSSDYNSALKSRLSISKDNSKSQVFLKMNSLQTDDTAMYYCARNGNFYAMDYWGQGTSVTVSS
VL: QIVLTQSPAIMSASLGERVTMTCTASSSVSSSFLHWYQQKPGSSPQLWIYSTSNLASGVPARFSGSGSGTSYSLTISSMEAEDAATYYCHQYHHTPYIYTFGGGTKLEIK
- OD450nm: 0.871 OD450nm
- Ratio OD(Variant)/OD(WT): 0.948 ratio to WT

B2: parental mouse (KB001) Fab FASEBA, VL variant H93N (Fab, V domains shown)
VH: EVQLKQSGPGLVAPSQSLSITCTVSGFSLSIYSVHWVRQPPGKGLEWLGMIWGGGSSDYNSALKSRLSISKDNSKSQVFLKMNSLQTDDTAMYYCARNGNFYAMDYWGQGTSVTVSS
VL: QIVLTQSPAIMSASLGERVTMTCTASSSVSSSFLHWYQQKPGSSPQLWIYSTSNLASGVPARFSGSGSGTSYSLTISSMEAEDAATYYCHQYNHSPYIYTFGGGTKLEIK
- OD450nm: 0.857 OD450nm
- Ratio OD(Variant)/OD(WT): 0.91 ratio to WT

B3: parental mouse (KB001) Fab FASEBA, VL variant S95I (Fab, V domains shown)
VH: EVQLKQSGPGLVAPSQSLSITCTVSGFSLSIYSVHWVRQPPGKGLEWLGMIWGGGSSDYNSALKSRLSISKDNSKSQVFLKMNSLQTDDTAMYYCARNGNFYAMDYWGQGTSVTVSS
VL: QIVLTQSPAIMSASLGERVTMTCTASSSVSSSFLHWYQQKPGSSPQLWIYSTSNLASGVPARFSGSGSGTSYSLTISSMEAEDAATYYCHQYHHIPYIYTFGGGTKLEIK
- OD450nm: 0.846 OD450nm and 0.817 OD450nm and 0.791 OD450nm
- Ratio OD(Variant)/OD(WT): 0.921 ratio to WT and 0.889 ratio to WT and 0.861 ratio to WT

B4: parental mouse (KB001) Fab FASEBA, VL variant Y92D (Fab, V domains shown)
VH: EVQLKQSGPGLVAPSQSLSITCTVSGFSLSIYSVHWVRQPPGKGLEWLGMIWGGGSSDYNSALKSRLSISKDNSKSQVFLKMNSLQTDDTAMYYCARNGNFYAMDYWGQGTSVTVSS
VL: QIVLTQSPAIMSASLGERVTMTCTASSSVSSSFLHWYQQKPGSSPQLWIYSTSNLASGVPARFSGSGSGTSYSLTISSMEAEDAATYYCHQDHHSPYIYTFGGGTKLEIK
- OD450nm: 0.758 OD450nm
- Ratio OD(Variant)/OD(WT): 0.805 ratio to WT

B5: parental mouse (KB001) Fab FASEBA, VL variant S95Q (Fab, V domains shown)
VH: EVQLKQSGPGLVAPSQSLSITCTVSGFSLSIYSVHWVRQPPGKGLEWLGMIWGGGSSDYNSALKSRLSISKDNSKSQVFLKMNSLQTDDTAMYYCARNGNFYAMDYWGQGTSVTVSS
VL: QIVLTQSPAIMSASLGERVTMTCTASSSVSSSFLHWYQQKPGSSPQLWIYSTSNLASGVPARFSGSGSGTSYSLTISSMEAEDAATYYCHQYHHQPYIYTFGGGTKLEIK
- OD450nm: 0.893 OD450nm
- Ratio OD(Variant)/OD(WT): 0.972 ratio to WT

B6: parental mouse (KB001) Fab FASEBA, VL variant S95W (Fab, V domains shown)
VH: EVQLKQSGPGLVAPSQSLSITCTVSGFSLSIYSVHWVRQPPGKGLEWLGMIWGGGSSDYNSALKSRLSISKDNSKSQVFLKMNSLQTDDTAMYYCARNGNFYAMDYWGQGTSVTVSS
VL: QIVLTQSPAIMSASLGERVTMTCTASSSVSSSFLHWYQQKPGSSPQLWIYSTSNLASGVPARFSGSGSGTSYSLTISSMEAEDAATYYCHQYHHWPYIYTFGGGTKLEIK
- OD450nm: 0.804 OD450nm and 0.79 OD450nm
- Ratio OD(Variant)/OD(WT): 0.875 ratio to WT and 0.86 ratio to WT

B7: parental mouse (KB001) Fab FASEBA, VL variant H94F (Fab, V domains shown)
VH: EVQLKQSGPGLVAPSQSLSITCTVSGFSLSIYSVHWVRQPPGKGLEWLGMIWGGGSSDYNSALKSRLSISKDNSKSQVFLKMNSLQTDDTAMYYCARNGNFYAMDYWGQGTSVTVSS
VL: QIVLTQSPAIMSASLGERVTMTCTASSSVSSSFLHWYQQKPGSSPQLWIYSTSNLASGVPARFSGSGSGTSYSLTISSMEAEDAATYYCHQYHFSPYIYTFGGGTKLEIK
- OD450nm: 0.77 OD450nm
- Ratio OD(Variant)/OD(WT): 0.838 ratio to WT

B8: parental mouse (KB001) Fab FASEBA, VL variant S95F (Fab, V domains shown)
VH: EVQLKQSGPGLVAPSQSLSITCTVSGFSLSIYSVHWVRQPPGKGLEWLGMIWGGGSSDYNSALKSRLSISKDNSKSQVFLKMNSLQTDDTAMYYCARNGNFYAMDYWGQGTSVTVSS
VL: QIVLTQSPAIMSASLGERVTMTCTASSSVSSSFLHWYQQKPGSSPQLWIYSTSNLASGVPARFSGSGSGTSYSLTISSMEAEDAATYYCHQYHHFPYIYTFGGGTKLEIK
- OD450nm: 0.837 OD450nm
- Ratio OD(Variant)/OD(WT): 0.911 ratio to WT

B9: parental mouse (KB001) Fab FASEBA, VL variant H94Y (Fab, V domains shown)
VH: EVQLKQSGPGLVAPSQSLSITCTVSGFSLSIYSVHWVRQPPGKGLEWLGMIWGGGSSDYNSALKSRLSISKDNSKSQVFLKMNSLQTDDTAMYYCARNGNFYAMDYWGQGTSVTVSS
VL: QIVLTQSPAIMSASLGERVTMTCTASSSVSSSFLHWYQQKPGSSPQLWIYSTSNLASGVPARFSGSGSGTSYSLTISSMEAEDAATYYCHQYHYSPYIYTFGGGTKLEIK
- OD450nm: 0.865 OD450nm
- Ratio OD(Variant)/OD(WT): 0.942 ratio to WT

B10: parental mouse (KB001) Fab FASEBA, VL variant S95E (Fab, V domains shown)
VH: EVQLKQSGPGLVAPSQSLSITCTVSGFSLSIYSVHWVRQPPGKGLEWLGMIWGGGSSDYNSALKSRLSISKDNSKSQVFLKMNSLQTDDTAMYYCARNGNFYAMDYWGQGTSVTVSS
VL: QIVLTQSPAIMSASLGERVTMTCTASSSVSSSFLHWYQQKPGSSPQLWIYSTSNLASGVPARFSGSGSGTSYSLTISSMEAEDAATYYCHQYHHEPYIYTFGGGTKLEIK
- OD450nm: 0.855 OD450nm and 0.82 OD450nm
- Ratio OD(Variant)/OD(WT): 0.931 ratio to WT and 0.893 ratio to WT

B11: parental mouse (KB001) Fab FASEBA, VL variant Y92N (Fab, V domains shown)
VH: EVQLKQSGPGLVAPSQSLSITCTVSGFSLSIYSVHWVRQPPGKGLEWLGMIWGGGSSDYNSALKSRLSISKDNSKSQVFLKMNSLQTDDTAMYYCARNGNFYAMDYWGQGTSVTVSS
VL: QIVLTQSPAIMSASLGERVTMTCTASSSVSSSFLHWYQQKPGSSPQLWIYSTSNLASGVPARFSGSGSGTSYSLTISSMEAEDAATYYCHQNHHSPYIYTFGGGTKLEIK
- OD450nm: 0.773 OD450nm
- Ratio OD(Variant)/OD(WT): 0.821 ratio to WT
